# Data as given in article PMC7040854.
# Tests used:
# FGFR2K^R678E (human) = assay: NMR CPMG relaxation dispersion
# FGFR2K^R678G (human) = assay: NMR CPMG relaxation dispersion
Kd (FGFR2K^R678E (human)) [mM],Kd (FGFR2K^R678G (human)) [mM],Substance
8,–,FGFR2K^R678E (domain or fragment)
–,55,FGFR2K^R678G (domain or fragment)
